Several values for one entry are separate records, joined by “and”; a condition that tells them apart may be missing. Equal values may be shown once. One block for each substance: values may come before it.
Columns and labels:
[1] = biological target: ATP synthase (complex V), human fibroblasts (human (endogenous in fibroblasts)) (UniProt P25705); experiment: native gel or EMSA; clear native electrophoresis (CNE), 6-15% gradient gels, of digitonin-solubilised (4 g/g protein) mitochondria of human fibroblasts (control and patients) and ρ0 cells; western blot, in-gel activity staining, 2D CNE/SDS PAGE
[2] = biological target: CV lacking the mtDNA-coded subunits (ρ0 cells) (human (endogenous in 143B TK- ρ0 cells)) (UniProt P25705); experiment: as above
[3] = biological target: respiratory chain complex IV, human fibroblasts (human (endogenous in fibroblasts)) (UniProt P13073); experiment: as above
[4] = biological target: respiratory chain complex IV, rat heart (rat (endogenous in rat heart mitochondria)) (UniProt P10888); experiment: native gel or EMSA; clear native electrophoresis (CNE), 6-15% gradient gels, of digitonin-solubilised (4 g/g protein) rat heart mitochondria; western blot, in-gel activity staining, 2D CNE/SDS PAGE and CNE/CNECBG

stoichiometry N [1]: 2 and 4
Substance: ATP synthase (complex V), human fibroblasts (from UniProt P25705 44-553; P06576 48-529; P36542 26-298; P00846 1-226; P03928 1-68)

Substance: CV lacking the mtDNA-coded subunits (ρ0 cells) (from UniProt P25705 44-553; P06576 48-529; P36542 26-298) (complex)
stoichiometry N [2]: 2 and 4

stoichiometry N [3]: 2
Substance: respiratory chain complex IV, human fibroblasts (from UniProt P13073 23-169; P00395 1-513)

stoichiometry N [4]: 2
Substance: respiratory chain complex IV, rat heart (from UniProt P10888 23-169; P05503 1-514)
